± gives the standard error. This sample holds only a part of the variants without activity.
B1: glmS ribozyme (parent)
chain: AUAAAAGCGCCAGAACUACAGAAAUGUAGUUGACGAGGAGGAGGUUUAUCGAAUUUUCGGCGGAUGCCUCCAAA

What was measured:
Conditions in all cases: with glucosamine-6-phosphate
glucosamine-6-phosphate [1] = variants of: B1; assay: self-cleavage kobs at 40 uM GlcN6P; higher = faster cleavage; RNA array
Method in brief: (§1)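 kobs was derived by fitting per-tile medians to one- or two-exponential decays after normalising signals to baseline and to non-cleaving reference variants. Those signals came from barcoded ribozyme variants transcribed in situ by E. coli RNA polymerase on sequenced MiSeq chips, followed through a hybridised Cy3 probe at 37 °C and imaged over ~14 h. Glucosamine-6-phosphate (40 μM to 10 mM) in HEPES/KCl/Mg(OAc)2 buffer was flowed in. Weighted Michaelis–Menten fits across concentrations then gave kcat and KM.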

glucosamine-6-phosphate [2] = variants of: B1; assay: self-cleavage kobs at 10000 uM GlcN6P; higher = faster cleavage; RNA array
Method in brief: as §1

glucosamine-6-phosphate [3] = variants of: B1; assay: self-cleavage kobs at 640 uM GlcN6P; higher = faster cleavage; RNA array
Method in brief: as §1

glucosamine-6-phosphate [4] = variants of: B1; assay: self-cleavage kobs at 2500 uM GlcN6P; higher = faster cleavage; RNA array
Method in brief: as §1

glucosamine-6-phosphate [5] = variants of: B1; assay: self-cleavage kobs at 160 uM GlcN6P; higher = faster cleavage; RNA array
Method in brief: as §1

Variant	self-cleavage kobs at 40 uM GlcN6P (glucosamine-6-phosphate [1]) [s⁻¹]	self-cleavage kobs at 10000 uM GlcN6P (glucosamine-6-phosphate [2]) [s⁻¹]	self-cleavage kobs at 640 uM GlcN6P (glucosamine-6-phosphate [3]) [s⁻¹]	self-cleavage kobs at 2500 uM GlcN6P (glucosamine-6-phosphate [4]) [s⁻¹]	self-cleavage kobs at 160 uM GlcN6P (glucosamine-6-phosphate [5]) [s⁻¹]
AUAAAAGCGCCACAAAUACAGAAAUGUAGUUGACGAUGAGGAGGUUUAUCGAAUUUUCGGCGGAUGCCUCCAAA [G13C C16A G37U]	< 1e-05	< 1e-05	–	–	–
AUAAAAGCGCCAAAACUACAGAAAUGUAGUUGAAGUGGAGGAGGUUUAUCGAAUUUUCGGCGGAUGCGUCCAAA [G13A C34A A36U C68G]	8.42e-05 ± 3e-05	6.2e-05 ± 2.4e-05	–	–	–
AUAAAAGCGCCAAAACUACAGAAAUGUAGUUGGCGAGGAGGAGGUUUAUCGAAUUUUCGGCGGAUGCCUCCAAA [G13A A33G]	< 1e-05	–	< 1e-05	–	–
AUAAAAGCGCCAAAACUACAGAAAUGUAGUAGACGAGGAGGAGGUUUCUUGAAUUUUCGUCGGAUGACUCCAAA [G13A U31A A48C C50U G60U C67A]	< 1e-05	< 1e-05	–	–	–
AUAAAAGCGCCAAAAUUACAGAAAUGUAGUUGACGAGGAGGAGGUUUAUCGAAUUUUCGGCGGAUGUCUCCAAA [G13A C16U C67U]	< 1e-05	0.00025 ± 4.5e-05	–	0.000111 ± 2.7e-05	–
AUAAAAGCGCCACAACUACAGAAAUGUAGUUGUCGAGGGGGAGGUUCAUCGAAUUUUCGGUGGAUGCCUCCAAA [G13C A33U A39G U47C C61U]	< 1e-05	–	–	–	–
AUAAAAGCGCCACAACUACAGAAAUGUAGUUGACGAGGAGGAGGUUUGUCGAAUUUUCGGCGGAUUCCUCGAAA [G13C A48G G66U C71G]	< 1e-05	< 1e-05	–	–	–
AUAAAAGCGCCACAACUACAGAAAUGUAGUUGACGGGGUGGAGGUUUAUCGAAUUUUCGGCGGAUGCCUCCAAA [G13C A36G A39U]	< 1e-05	–	< 1e-05	< 1e-05	–
AUAAAAGCGCCAAAACUACAGAAAUGUAGUUGACGUGGAGGAGGUUUGUGGAAUUUUCGGGGGAUGCCUCCAAA [G13A A36U A48G C50G C61G]	0.000674 ± 0.00026	–	–	–	–
AUAAAAGCGCCAAAAUUACAGAAAUGUAGUUGACGAUGAGGAGGUUUAUCGAAUUUUCGGCGGAUGUCUCCAAA [G13A C16U G37U C67U]	< 1e-05	–	–	–	–
AUAAAAGCGCCAAAACUACAGAAAUGUAGUUGACGAGGAGGAGGUCUAUCGAAUUUUCAGCGGAUGCCUCCAAA [G13A U46C G59A]	< 1e-05	–	–	–	–
AUAAAAGCGCCUGAACUACAGAAAUGUAGUUGACGAGGAGGAGGUUUAUCGAAAUUUCGGCGGAUGCCACCAAA [A12U U54A U69A]	0.000126 ± 4.4e-05	0.000322 ± 6.8e-05	0.000125 ± 2.7e-05	0.000458 ± 9.4e-05	0.000159 ± 4.6e-05
AUAAAAGCGCCACAACUACAGAAAUGUAGUUGACGAGGAGGAGGUUUUUCGAAUUUUCGGCGGAUGCCUGCAAA [G13C A48U C70G]	< 1e-05	< 1e-05	–	–	–
AUAAAAGCGCCAAAACUACAGAAAUGUAGUUGACGAGGAGGAGGUUUAUCGAAUUUUCGGCUGAUGCCUUCAAA [G13A G62U C70U]	< 1e-05	< 1e-05	–	–	–
AUAAAAGCGCCAAAACUACAGAAAUGUAGUUGACGAGGAGGAGGUUUAUGGAAUUUUCGGCGGAUUCCACCAAA [G13A C50G G66U U69A]	8.64e-05 ± 2.3e-05	0.000117 ± 3e-05	0.000563 ± 0.00026	–	–
AUAAAAGCGCCAAAAAUACAGAAAUGUAGUUGACGAGGAGGAGGUUUAUCGUAUUUUCGGCGGAUGCCUCCAAA [G13A C16A A52U]	< 1e-05	< 1e-05	–	< 1e-05	–

Variant	self-cleavage kobs at 40 uM GlcN6P (glucosamine-6-phosphate [1]) [s⁻¹]	self-cleavage kobs at 10000 uM GlcN6P (glucosamine-6-phosphate [2]) [s⁻¹]	self-cleavage kobs at 640 uM GlcN6P (glucosamine-6-phosphate [3]) [s⁻¹]	self-cleavage kobs at 2500 uM GlcN6P (glucosamine-6-phosphate [4]) [s⁻¹]	self-cleavage kobs at 160 uM GlcN6P (glucosamine-6-phosphate [5]) [s⁻¹]
AUAAAAGCGCCAAAACUACAGAAAUGUAGUUGACGAGGAGGAGGUUUAUCGAAUUUUCGGCGUAUGCCUCCAAA [G13A G63U]	< 1e-05	< 1e-05	< 1e-05	< 1e-05	< 1e-05
AUAAAAGCGCCAAAACUACAGAAAUGUAGUUGACAAGGAGGAGGUUUAUCGAAUUUUCGGCGGAUGCCUCCAAA [G13A G35A]	< 1e-05	–	< 1e-05	< 1e-05	< 1e-05
AUAAAAGCGCCAAAACUACAGAAAUGUAGUUGACGAGGUGGAGGUUUAUCGAAUUUUCGGUGGAUGCCUCCAAA [G13A A39U C61U]	< 1e-05	–	–	< 1e-05	–
AUAAAAGCGCCAAAACUACAGAAAUGUAGUUGAGGAGGAGGAGGUUUAUUGAAUUUUCGGCGGAUGGCUCCAAA [G13A C34G C50U C67G]	0.000108 ± 3.3e-05	8.5e-05 ± 2.6e-05	0.00142 ± 0.00036	–	–
AUAAAAGCGCCACAACUACAGAAAUGUAGUUGACGCGGAGGAGGUGUAUCGAAUUUUCGGCGGAUGCAUCCAAA [G13C A36C U46G C68A]	< 1e-05	< 1e-05	–	–	–
AUAAAAGCGCCUGAACUACAGAAAUGUAGUUGACGAGGAGGAGGUUUAUCGAACUUUCGGCGGAUGCCUCCAAA [A12U U54C]	0.00204 ± 0.00025	0.0931 ± 0.024	0.0165 ± 0.0024	0.0157 ± 0.0029	0.00477 ± 0.00085
AUAAAAGCGCCAAAACUACAGAAAUGUAGUUGACGAGGAGGAGGUUAAUCGAAUUUUCGUCGGAUGCCUCCAAA [G13A U47A G60U]	< 1e-05	< 1e-05	< 1e-05	–	< 1e-05
AUAAAAGCGCCAAAACUACAGAAAUGUAGUUGACGAGGAGGAGGUCUAUCGAAUUUUCGGCGGAUGACUCCAAA [G13A U46C C67A]	< 1e-05	–	< 1e-05	–	–
AUAAAAGCGCCAAAACUACAGAAAUGUAGCUGACGAGGAGGUGGUUUAUCGAAUUUUCGGCGGAUGCCUCCAAA [G13A U30C A42U]	< 1e-05	< 1e-05	–	–	–
AUAAAAGCGCCAAAACUACAGAAAUGUAGUUGACGAGGAGGAGGUUUAUCGAAUUUUUGGCGGAUGGCUCCAAA [G13A C58U C67G]	< 1e-05	–	–	–	–
AUAAAAGCGCCACACCUACAGAAAUGUAGUUGACGAGGAGGAGGUUUAUCUAAUUUUCGGCGGAUGCCUCCAAA [G13C A15C G51U]	< 1e-05	–	–	–	–
AUAAAAGCGCCAAAACUACAGAAAUGUAGUUCACGAGGAGGAUGUUUGUCGAAUUUUCGGCGGAUGCCACCAAA [G13A G32C G43U A48G U69A]	< 1e-05	–	–	–	–
AUAAAAGCGCCAAAACUACAGAAAUGUAGUUGACGAGGAGGAGGUUUAUGGAAUGUGCGGCUGAUGCCUCCAAA [G13A C50G U55G U57G G62U]	8.98e-05 ± 2.1e-05	5.32e-05 ± 1.5e-05	–	–	–
AUAAAAGCGCCAAUACUACAGAAAUGUAGUCGACGAGGAGGAGGUUUAUCGAAUUUUCGGCGGAUGCCUCCAAA [G13A A14U U31C]	7.34e-05 ± 1.8e-05	–	–	–	–
AUAAAAGCGCCAAAACUACAGAAAUGUAGUUGACGAGGAGGAGGCUUAUCGAAUUUUCGGCGGGUGCCUCCAAA [G13A U45C A64G]	< 1e-05	–	–	–	–
AUAAAAGCGCCAAAACUACAGAAAUGUAGUUGACGAGGAGGAGGUUUAACGAAUUUUCGGCGGGUGCCUCCAAA [G13A U49A A64G]	< 1e-05	–	< 1e-05	–	< 1e-05

Reference: the supplement of paper PMC7125110
